Measured values taken from publication PMC11042868.

Assays:
[1] = target: HER2 on MDA-MB-453 cells (Homo sapiens) (UniProt P04626); assay: cell binding, NIR fluorescence; settings: live cells, 5% FBS, 1 h, live adherent cells (1e4/well), 0.01-10 uM 5'-IRD800 aptamer in growth medium with 5% FBS, 37 C (or 4 C), buffer salt and pH not stated
[2] = target: HER2 on SK-BR-3 cells (Homo sapiens) (UniProt P04626); assay: cell binding, NIR fluorescence; settings: live cells, 5% FBS, 1 h, live adherent cells (1e4/well), 0.01-10 uM 5'-IRD800 aptamer in growth medium with 5% FBS, 37 C (or 4 C), buffer salt and pH not stated

Sequence: CCGCCCAAACACACGTAAACAGATGAGGAGCCGACACTGGG [HMAP7 (M7)]
- Kd [1]: 0.26 µM
- Kd [2]: 0.35 µM
